The target in test [1] is T1, APP-TAP-AICD (human, UniProt P05067 18-695). In words: streptavidin purification of APP-TAP-AICD from brain homogenate; iTRAQ 116/114, transgenic mouse 75 vs control mouse 72; MALDI-TOF/TOF.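 Further: relative protein abundance in the transgenic versus control pull-down, limited to proteins with high quality scores and above-average enrichment, without full normalization across the whole measurement.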
Text: Shown are all proteins that have high quality scores and are enriched above average in the m75 sample. Purified bait protein is given underlined. Other already known interaction partners of AICD or putatively biologically relevant proteins are given in bold. As full normalization over the entire measurement was not possible through the GPS explorer software suite, this conservative estimate had to be taken for determining the enriched vs. the non-enriched proteins. […] Ranking is in order of abundance ratio.
The target in test [2] is T1, APP-TAP-AICD. The test can be described thus: streptavidin purification of APP-TAP-AICD from brain homogenate; LTQ-FT semiquantitative method, transgenic mouse 75 vs control mouse 72.

B1: SH3-containing GRB2-like protein 1 (SH3 domain protein 2B) (SH3p8) (other, mouse, UniProt Q62419 1-368, looked up)
chain: MSVAGLKKQFYKASQLVSEKVGGAEGTKLDDDFKDMEKKVDVTSKAVAEVLVRTIEYLQPNPASRAKLTMLNTVSKIRGQVKNPGYPQSEGLLGECMVRHGKELGGESNFGDALLDAGESMKRLAEVKDSLDIEVKQNFIDPLQNLCDKDLKEIQHHLKKLEGRRLDFDYKKKRQGKIPDEELRQALEKFEESKEVAETSMHNLLETDIEQVSQLSALVDAQLDYHRQAVQILEELADKLKRRVREASSRPKREFKPRPREPFELGELEQPNGGFPCAPAPKITASSSFRSSDKPIRMPSKSMPPLDQPSCKALYDFEPENDGELGFREGDLITLTNQIDENWYEGMLHGQSGFFPLSYVQVLVPLPQ
notes: also called SH3G1_MOUSE
On to B1, for which, in test [1], the iTRAQ ratio stood at 3.64. Moreover, in test [2], the “probability that this protein is enriched” value was found to be 1.

B2: 14-3-3 protein epsilon (14-3-3E) (other, mouse, UniProt P62259 1-255, looked up)
chain: MDDREDLVYQAKLAEQAERYDEMVESMKKVAGMDVELTVEERNLLSVAYKNVIGARRASWRIISSIEQKEENKGGEDKLKMIREYRQMVETELKLICCDILDVLDKHLIPAANTGESKVFYYKMKGDYHRYLAEFATGNDRKEAAENSLVAYKAASDIAMTELPPTHPIRLGLALNFSVFYYEILNSPDRACRLAKAAFDDAIAELDTLSEESYKDSTLIMQLLRDNLTLWTSDMQGDGEEQNKEALQDVEDENQ
Consider B2, for which, in test [1], the iTRAQ ratio amounted to 3.94. Moreover, the “probability that this protein is enriched” value in test [2] came to 1.

B3: Vesicle-fusing ATPase (EC 3.6.4.6) (Vesicular-fusion protein NSF) (N-ethylmaleimide sensitive fusion protein) (enzyme, mouse, UniProt P46460 1-744, looked up)
chain: MAGRTMQAARCPTDELSLSNCAVVNEKDFQSGQHVMVRTSPNHKYIFTLRTHPSVVPGCIAFSLPQRKWAGLSIGQDIEVALYSFDKAKQCIGTMTIEIDFLQKKNIDSNPYDTDKMAAEFIQQFNNQAFSVGQQLVFSFNDKLFGLLVKDIEAMDPSILKGEPASGKRQKIEVGLVVGNSQVAFEKAENSSLNLIGKAKTKENRQSIINPDWNFEKMGIGGLDKEFSDIFRRAFASRVFPPEIVEQMGCKHVKGILLYGPPGCGKTLLARQIGKMLNAREPKVVNGPEILNKYVGESEANIRKLFADAEEEQRRLGANSGLHIIIFDEIDAICKQRGSMAGSTGVHDTVVNQLLSKIDGVEQLNNILVIGMTNRPDLIDEALLRPGRLEVKMEIGLPDEKGRLQILHIHTARMRGHQLLSADVDIKELAVETKNFSGAELEGLVRAAQSTAMNRHIKASTKVEVDMEKAESLQVTRGDFLASLENDIKPAFGTNQEDYASYIMNGIIKWGDPVTRVLDDGELLVQQTKNSDRTPLVSVLLEGPPHSGKTALAAKIAEESNFPFIKICSPDKMIGFSETAKCQAMKKIFDDAYKSQLSCVVVDDIERLLDYVPIGPRFSNLVLQALLVLLKKAPPQGRKLLIIGTTSRKDVLQEMEMLNAFSTTIHVPNIATGEQLLEALELLGNFKDKERTTIAQQVKGKKVWIGIKKLLMLIEMSLQMDPEYRVRKFLALMREEGASPLDFD
For the molecule B3, the iTRAQ ratio in test [1] was found to be 4. The “probability that this protein is enriched” value in test [2] came to 0.86.

B4: Gamma enolase (2-phospho-D-glycerate hydrolyase) (Neural enolase) (enzyme, mouse, UniProt P17183 2-434, looked up)
chain: SIEKIWAREILDSRGNPTVEVDLYTAKGLFRAAVPSGASTGIYEALELRDGDKQRYLGKGVLKAVDHINSRIAPALISSGISVVEQEKLDNLMLELDGTENKSKFGANAILGVSLAVCKAGAAERDLPLYRHIAQLAGNSDLILPVPAFNVINGGSHAGNKLAMQEFMILPVGAESFRDAMRLGAEVYHTLKGVIKDKYGKDATNVGDEGGFAPNILENSEALELVKEAIDKAGYTEKMVIGMDVAASEFYRDGKYDLDFKSPADPSRYITGDQLGALYQDFVRNYPVVSIEDPFDQDDWAAWSKFTANVGIQIVGDDLTVTNPKRIERAVEEKACNCLLLKVNQIGSVTEAIQACKLAQENGWGVMVSHRSGETEDTFIADLVVGLCTGQIKTGAPCRSERLAKYNQLMRIEEELGDEARFAGHNFRNPSVL
notes: also called neuron-specific enolase
With B4, the iTRAQ ratio in test [1] came out at 4.08. In addition, in test [2], the “probability that this protein is enriched” value came to 1.

The record behind these values is US20100169988A1 (published 2010).
